This passage reports binding result and Kd results from patent US20190376122, “SINGLE-STRAND BINDING PROTEIN” (Universitetet I Tromsø - Norges Arktiske Universitet, published 2019).

Numbering of substitutions follows the chain as printed.

Series [1] has as its target T1, wild-type Salinibacter ruber SSB (SrSSB) (Salinibacter ruber DSM 13855).
T1 chain: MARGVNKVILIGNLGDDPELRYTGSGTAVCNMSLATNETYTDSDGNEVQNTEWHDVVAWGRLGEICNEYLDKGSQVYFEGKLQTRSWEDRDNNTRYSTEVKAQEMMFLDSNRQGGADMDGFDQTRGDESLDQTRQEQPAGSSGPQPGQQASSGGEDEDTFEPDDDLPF
The series is described as follows: beacon dehybridization fluorescence, 4 uM protein; binding maintained with NaCl to 1 M, KCl to 1 M, MgCl2 to 250 mM; 25 C. The note with it: chain copies: octamer/dodecamer mixture at 0.15 M NaCl; mostly octamer at 2 M NaCl (stated); label: dT-DABCYL and dT-FAM internal; partial hairpin with short 8 bp stem and 24 nt single-stranded loop. The method, then:
(§1) Wild-type S.ruber SSB and the D17K D71K mutant were tested for their ability to bind ssDNA in reaction buffer supplemented with NaCl, KCl, MgCl₂ and CaCl₂. E. coli SSB was used as a well characterized, reference protein.
(§2) Reactions contained 0.125 μM of molecular beacon and 0.25 μM of E. coli SSB tetramer (single binding unit), 4 μM of wt SrSSB and 2 μM of D17K D71K. Reaction mixtures were set up in triplicates in 50 μl of reaction buffer MB (10 mM Tris-HCl pH 7, 10 mM NaCl) containing the fluorescent probe and supplemented with an indicated concentration of NaCl, KCl or MgCl₂ in 96-well plate (Corning). The binding reaction was initiated by addition of the indicated SSB protein, next reactions were incubated at 25° C. for 15′ and the fluorescence was measured with excitation at 495 nm and emission at 520 nm on the Gemini plate reader (Molecular Devices). All graphs were normalized to 100% of initial response, measured in fluorescence units.

Series [2] addresses T2, SrSSB D17K D71K mutant (Salinibacter ruber).
T2 chain: T1 chain with D17K, D71K
The series is described as follows: beacon dehybridization fluorescence, 2 uM protein; level similar to wt at half the concentration; maintained in high NaCl, KCl, MgCl2; 25 C. The following applies: chain copies: octamer (stated); label: dT-DABCYL and dT-FAM internal; partial hairpin with short 8 bp stem and 24 nt single-stranded loop. The procedure:
as §1, §2

The target in series [3] is E. coli SSB (Escherichia coli, UniProt P0AGE0 P0AGE0:2-178). The series can be described thus: beacon fluorescence, 0.25 uM tetramer; binding decreases significantly with increasing concentration of all tested salts; 25 C. The following applies: chain copies: tetramer (stated); label: dT-DABCYL and dT-FAM internal; partial hairpin with short 8 bp stem and 24 nt single-stranded loop. The procedure:
as §1, §2

Series [4] addresses T2, SrSSB D17K D71K mutant. The series can be described thus: SPR; 10 mM Tris-HCl pH 7, 10 mM NaCl; Chi2 0.624. The note with it: chain copies: octamer (stated); label: 5'-biotin. From the text: (§3) Higher binding affinity of the D17K D71K mutant was also confirmed by probing the protein-ssDNA interaction strength directly with the use of Surface Plasmon Resonance on a T200 instrument (BIACORE). This biosensor-based technique enables real-time measurement of binding parameters that enables calculation of equilibrium dissociation constant (KD) of different complexes, including nucleoprotein complexes. To ensure that the measurement is not biased by nucleotide sequence, a randomly generated, 150 nucleotide, 5′-biotynylated ssDNA oligonucleotide was used (Table 2, SEQ ID NO:11). Oligonucleotides were attached to the surface of the SA S-type chip (BIACORE) via biotin-streptavidin interaction. Next, both proteins were run in dilutions: 10 nM, 20 nM, 40 nM, 100 nM, 150 nM, 200 nM, 300 nM over the chip surface in MB buffer (10 mM Tris-HCl pH 7, 10 mM NaCl). The binding event was detected by mass change on the chip surface, which enabled real time measurements of the kinetic parameters of protein-ssDNA interaction.
(Surface plasmon resonance follows binding to a sensor surface in real time, without labels.)

Series [5] deals with T1, wild-type Salinibacter ruber SSB (SrSSB). The series is described as follows: SPR; 10 mM Tris-HCl pH 7, 10 mM NaCl; Chi2 0.529. The following applies: chain copies: octamer/dodecamer mixture at 0.15 M NaCl; mostly octamer at 2 M NaCl (stated); label: 5'-biotin.
Description: as §3

Series [6] shares this target. The series is described as follows: structure; PDB 5ODN; d(T)8 soaked; one ssDNA fragment per OB-fold; 0.25 M MgCl2, 1 M ammonium sulphate, pH 8.0. The note with it: chain copies: octamer/dodecamer mixture at 0.15 M NaCl; mostly octamer at 2 M NaCl (stated). The procedure: Small, prism-shaped crystals of wild-type S. ruber SSB were obtained in sitting drops consisting of 1 μl of protein solution (5 mg/ml) containing 20 μM of d(T)₇₅ oligonucleotide and 1 μl of reservoir solution (27% w/v PEG 3350, 100 mM Tris-HCl pH 8.0, 0.25M MgCl₂, 1 M ammonium sulphate). Soaking experiments were performed by adding d(T)₈ oligonucleotide to the drops containing formed crystals, to a final concentration of 0.25 μM.

Chain of E. coli SSB (P0AGE0 2-178, one chain of several): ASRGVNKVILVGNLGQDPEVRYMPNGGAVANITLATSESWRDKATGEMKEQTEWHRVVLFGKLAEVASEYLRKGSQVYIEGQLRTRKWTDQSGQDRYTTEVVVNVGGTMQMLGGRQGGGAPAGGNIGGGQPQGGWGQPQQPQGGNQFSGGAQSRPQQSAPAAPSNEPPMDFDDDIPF

B1: MB molecular beacon (ssDNA)
DNA: GGCCCGTAGGAGGAAAGGACATCTTCTAGCATACGGGCCGTCAAGTTCATGGCCAGTCAAGTCGTCAGAAATTTCGCACCAC
In the case of B1, the binding result in series [1], in series [2] and in series [3] was “binds” each time.

B2: SPR 150nt oligonucleotide (ssDNA)
DNA: AAAGGGTATTGACGGACCAGATGTAGCGTGGCAGAAAAGGGTATTGACGGACCAGATGTAGCGTGGCAGAGACTGAAAGGGTATTGACGGACCAGATGTAGCGTGGCAGAAAAGGGTATTGACGGACCAGATGTAGCGTGGCAGAGACTG
For the molecule B2, the values for the Kd in series [4] and in series [5] were 19.1 nM and 34.3 nM, respectively.
For the molecule TTTTTTTT (ssDNA) [d(T)8], in series [6], the binding result was “binds”.
